Data on two sequences can be found in patent US20030224390A1, “Method of identifying conformation-sensitive binding peptides and uses thereof” (Karo Bio AB, priority 2000, published 2003).

Test [1] addresses T1, Glucocorticoid Receptor (GR) (Homo sapiens, UniProt P04150).
T1 construct: peptides to GR in the yeast based system using full-length receptor; expressed in transfected cells; host or cells: yeast
T1 sequence (P04150 1-777): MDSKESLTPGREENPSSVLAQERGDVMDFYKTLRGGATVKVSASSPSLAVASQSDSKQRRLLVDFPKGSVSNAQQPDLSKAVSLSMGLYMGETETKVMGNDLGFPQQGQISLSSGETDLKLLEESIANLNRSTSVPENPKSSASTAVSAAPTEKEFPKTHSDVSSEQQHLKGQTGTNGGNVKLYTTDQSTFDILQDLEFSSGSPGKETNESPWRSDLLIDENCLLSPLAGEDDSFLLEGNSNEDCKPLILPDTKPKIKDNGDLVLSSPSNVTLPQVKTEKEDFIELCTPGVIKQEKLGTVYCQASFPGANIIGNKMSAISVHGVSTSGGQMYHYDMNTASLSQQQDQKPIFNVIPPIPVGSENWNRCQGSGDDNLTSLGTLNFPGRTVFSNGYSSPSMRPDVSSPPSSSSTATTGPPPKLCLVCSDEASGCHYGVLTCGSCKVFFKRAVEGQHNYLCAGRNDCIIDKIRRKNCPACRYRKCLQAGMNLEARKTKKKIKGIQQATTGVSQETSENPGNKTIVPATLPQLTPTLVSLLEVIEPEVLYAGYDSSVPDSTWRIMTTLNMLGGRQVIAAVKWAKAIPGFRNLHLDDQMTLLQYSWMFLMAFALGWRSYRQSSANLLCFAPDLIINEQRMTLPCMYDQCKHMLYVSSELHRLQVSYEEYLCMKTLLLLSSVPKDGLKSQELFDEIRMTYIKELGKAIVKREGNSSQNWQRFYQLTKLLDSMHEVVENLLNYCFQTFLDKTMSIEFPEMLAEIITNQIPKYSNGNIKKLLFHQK
The experiment in a line: Yeast based two-hybrid system with full-length GR (Example 503). It is filed as cell-based. The text has this: (§1) We have performed a limited amount of in vivo screenings for peptides to GR in the yeast based system using full-length receptor and either dexamethasone or medroxyprogesterone acetate as ligands. We have a single peptide sequence that we have followed up on based on its specificity profile in yeast. This peptide was isolated on MPA liganded GR, and is termed GRMPA. Its sequence is as follows: […] (SEQ ID NO:268).

Test [2] concerns the target T2, glucocorticoid receptor (Homo sapiens, UniProt P04150).
T2 construct: expressed in transfected cells; host or cells: Huh-7 cells
T2 sequence (P04150 1-777): T1 sequence (P04150 1-777)
The experiment in a line: Mammalian cell based peptide/GR interaction assay in Huh-7 cells, 96-/384-well luciferase.
Description: as §1
We have isolated numerous peptides using phage display to the GR ligand binding domain and have formatted cell based assays in mammalian cells for screening large compound sets. We have formatted the assay as stated above for 96-well plates and for 384-well plates. To format the assay to 384-well plates the number of cells per well were scaled down to 5,000 Huh-7 cells per well. Similar ratios of DNA constructs and lipection reagents were used in both assays for transfections prior to seeding the cells into the assay plates. We have also carried out a screen of a 60,000 compound set with one of the phage display isolated peptides in this mammalian cell based format. This peptide interacts with the glucocorticoid receptor in the presence of both agonists (e.g. fluticasone propionate and dexamethasone) and antagonists (RU486). For the compound screen cells were transfected in suspension with DNA constructs as described above prior to seeding 5,000 cells per well. […]

The target in test [3] is ERβ (Homo sapiens, UniProt Q92731). The experiment in a line: Phage ELISA fingerprint: peptide binding to immobilized ER β with modulator present (Table 14B). The conditions noted are these: nafoxidine (10 μM). (In an ELISA, binding on a coated surface is turned into a signal by an enzyme label.)
The target of test [4] is T3, ER α (Homo sapiens, UniProt P03372).
T3 sequence (P03372 1-595): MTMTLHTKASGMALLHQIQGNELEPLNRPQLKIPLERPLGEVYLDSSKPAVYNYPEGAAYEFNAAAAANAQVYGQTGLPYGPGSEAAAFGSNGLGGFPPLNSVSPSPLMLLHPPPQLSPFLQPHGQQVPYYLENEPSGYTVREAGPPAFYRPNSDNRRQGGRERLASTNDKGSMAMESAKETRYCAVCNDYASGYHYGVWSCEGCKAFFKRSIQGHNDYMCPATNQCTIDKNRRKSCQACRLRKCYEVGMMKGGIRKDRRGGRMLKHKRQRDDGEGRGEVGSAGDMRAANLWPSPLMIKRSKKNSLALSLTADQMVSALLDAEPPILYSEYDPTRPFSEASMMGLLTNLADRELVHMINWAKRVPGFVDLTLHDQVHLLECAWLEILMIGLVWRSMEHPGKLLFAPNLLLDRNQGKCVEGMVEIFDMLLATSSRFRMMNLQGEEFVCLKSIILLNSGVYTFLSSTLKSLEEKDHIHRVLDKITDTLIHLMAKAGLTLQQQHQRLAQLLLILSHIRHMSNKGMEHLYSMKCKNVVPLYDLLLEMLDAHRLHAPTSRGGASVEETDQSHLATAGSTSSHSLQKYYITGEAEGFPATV
Description: Phage ELISA fingerprint: peptide binding to immobilized ER α with modulator present (Table 14A). The conditions noted are these: ICI 182,780 (1 μM).

ERβ, sequence (Q92731 whole entry, species assumed): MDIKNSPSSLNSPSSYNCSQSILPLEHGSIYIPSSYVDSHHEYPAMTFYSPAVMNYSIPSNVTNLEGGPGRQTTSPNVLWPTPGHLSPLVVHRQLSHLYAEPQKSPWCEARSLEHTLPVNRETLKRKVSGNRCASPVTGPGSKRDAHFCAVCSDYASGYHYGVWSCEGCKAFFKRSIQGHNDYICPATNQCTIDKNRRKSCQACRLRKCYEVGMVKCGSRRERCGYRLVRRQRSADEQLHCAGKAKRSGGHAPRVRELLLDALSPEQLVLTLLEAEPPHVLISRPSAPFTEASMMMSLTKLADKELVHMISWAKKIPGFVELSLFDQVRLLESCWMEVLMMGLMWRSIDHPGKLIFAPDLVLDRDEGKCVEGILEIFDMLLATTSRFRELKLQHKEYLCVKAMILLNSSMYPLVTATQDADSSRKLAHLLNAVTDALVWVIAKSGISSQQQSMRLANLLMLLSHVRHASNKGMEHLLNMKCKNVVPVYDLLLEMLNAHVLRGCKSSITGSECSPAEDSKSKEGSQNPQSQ

With EFVARYGQLLGWRHPCS [GRMPA], the “Interaction with GR in the presence of partial agonists” value in test [1] (MPA, cortivazol, and deoxycorticosterone) is given as “interacted”. Moreover, the “Interaction with GR in the presence of antagonists” value in test [1] (RU486) is “interacted”. In test [1] (fluticasone propionate and dexamethasone), the “Interaction with GR in the presence of full agonists” value is given as “not”. For the same sequence, in test [2], the “Interaction with GR in the presence of all ligands (agonists, partial agonists, and antagonists)” value is given as “interacted”.

Take SRLPPSVFSMCGSEVCLSR [9Tβ]: in test [3], the “Class Specific Fingerprint on ERβ: peptide binding, Nafoxidine present” value is on record as 5. The “Class Specific Fingerprint on ERα: peptide binding, ICI 182,780 present” value in test [4] is given as 0.
